Data set [1] has as its target T1, wild-type full-length human 14-3-3γ (human, UniProt P61981 1-247).
T1 construct: 14-3-3γ, human, wild type, full length; Called untagged in the preparation of the heterodimer; also called untagged 14-3-3γ
T1 sequence (looked up): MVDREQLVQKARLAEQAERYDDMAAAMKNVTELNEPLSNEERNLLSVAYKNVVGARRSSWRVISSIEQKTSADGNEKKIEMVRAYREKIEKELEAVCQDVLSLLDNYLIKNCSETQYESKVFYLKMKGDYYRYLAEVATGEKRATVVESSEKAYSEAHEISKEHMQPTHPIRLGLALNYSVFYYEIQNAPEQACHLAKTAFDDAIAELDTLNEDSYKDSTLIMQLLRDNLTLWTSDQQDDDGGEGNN
Kind of data set: time-resolved fluorescence anisotropy; 1 µM 22NC, 10 µM pSTARD1, 100 µM 14-3-3γ; 20 mM Tris-HCl pH 7.5, 150 mM NaCl, 5 mM MgCl2; 25 °C; correlation time of the 22NC bound to STARD1. The following applies: both partners purified. For orientation: In fluorescence polarisation assays a small probe gives low polarisation when free and higher when bound to something large.

In data set [2] the target is T2, STARD1_(46-285)-S56A/L59P phosphorylated at Ser57 and Ser195 (human, UniProt P49675 46-285, S56A | L59P, phosphoserine at 57; phosphoserine at 195).
T2 sequence: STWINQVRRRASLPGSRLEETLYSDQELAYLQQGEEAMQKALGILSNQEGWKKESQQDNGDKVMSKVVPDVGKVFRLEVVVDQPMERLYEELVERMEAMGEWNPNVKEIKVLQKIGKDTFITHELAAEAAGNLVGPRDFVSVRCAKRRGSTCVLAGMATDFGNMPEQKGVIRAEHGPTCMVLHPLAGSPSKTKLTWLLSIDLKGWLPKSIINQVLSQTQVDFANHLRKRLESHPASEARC
The experiment in a line: SPR. (In general: In SPR one partner is held on a chip, and binding of the other changes the refractive index at the surface.)

For data set [3], the target named is T2, STARD1_(46-285)-S56A/L59P …. The experiment in a line: SPR. This is another data set of the same source.
Data set [4] concerns the molecule itself. Kind of data set: crystal structure; phosphorylated chimeras of 14-3-3σΔC with the STARD1 peptide joined by a GSGSL linker; sitting-drop vapor diffusion; data at 100 K.

We go through four molecules from paper doi:10.1101/2020.04.14.040436, “Molecular basis for the recognition of steroidogenic acute regulatory protein by the 14-3-3 protein family” (bioRxiv, 2020).

B1: STARD1_(46-285)-S56A/L59P phosphorylated at Ser57 and Ser195 (domain or fragment, human, UniProt P49675 46-285, looked up)
chain: STWINQVRRRASLPGSRLEETLYSDQELAYLQQGEEAMQKALGILSNQEGWKKESQQDNGDKVMSKVVPDVGKVFRLEVVVDQPMERLYEELVERMEAMGEWNPNVKEIKVLQKIGKDTFITHELAAEAAGNLVGPRDFVSVRCAKRRGSTCVLAGMATDFGNMPEQKGVIRAEHGPTCMVLHPLAGSPSKTKLTWLLSIDLKGWLPKSIINQVLSQTQVDFANHLRKRLESHPASEARC
modifications: phosphoserine at 57; phosphoserine at 195
notes: steroidogenic acute regulatory protein STARD1 (StAR), human, residues 46-285 of the 285-residue pre-protein; also called pSTARD1; pSTARD1_(46-285)-S56A/L59P
As to B1, the binding result in data set [1] was “binds”.

B2: 14-3-3ε/γ heterodimer (His6-tagged 14-3-3ε with untagged 14-3-3γ) (complex)
chain 1: MDDREDLVYQAKLAEQAERYDEMVESMKKVAGMDVELTVEERNLLSVAYKNVIGARRASWRIISSIEQKEENKGGEDKLKMIREYRQMVETELKLICCDILDVLDKHLIPAANTGESKVFYYKMKGDYHRYLAEFATGNDRKEAAENSLVAYKAASDIAMTELPPTHPIRLGLALNFSVFYYEILNSPDRACRLAKAAFDDAIAELDTLSEESYKDSTLIMQLLRDNLTLWTS
chain 2: MVDREQLVQKARLAEQAERYDDMAAAMKNVTELNEPLSNEERNLLSVAYKNVVGARRSSWRVISSIEQKTSADGNEKKIEMVRAYREKIEKELEAVCQDVLSLLDNYLIKNCSETQYESKVFYLKMKGDYYRYLAEVATGEKRATVVESSEKAYSEAHEISKEHMQPTHPIRLGLALNYSVFYYEIQNAPEQACHLAKTAFDDAIAELDTLNEDSYKDSTLIMQLLRDNLTLWTSDQQDDDGGEGNN
Broadly, the koff is the rate constant with which the complex falls apart. Low values mean slow dissociation, high ones fast dissociation. As for B2, in data set [2], the koff was 0.0057 s⁻¹. For the same molecule, the Ka in data set [3] was determined as 67000 M⁻¹.

B3: His6-tagged 14-3-3ε (natural protein)
chain: MDDREDLVYQAKLAEQAERYDEMVESMKKVAGMDVELTVEERNLLSVAYKNVIGARRASWRIISSIEQKEENKGGEDKLKMIREYRQMVETELKLICCDILDVLDKHLIPAANTGESKVFYYKMKGDYHRYLAEFATGNDRKEAAENSLVAYKAASDIAMTELPPTHPIRLGLALNFSVFYYEILNSPDRACRLAKAAFDDAIAELDTLSEESYKDSTLIMQLLRDNLTLWTS
As for B3, in data set [2], the koff was found to be 0.0058 s⁻¹. The molecule also returned a Ka in data set [3] of 77000 M⁻¹.

B4: chimeric 14-3-3σΔC protein with the STARD1 Ser195 phosphopeptide (other, human)
chain: MERASLIQKAKLAEQAERYEDMAAFMKGAVEKGEELSCEERNLLSVAYKNVVGGQRAAWRVLSSIEQKSNEEGSAAAGPEVREYREKVETELQGVCDTVLGLLDSHLIKEAGDAESRVFYLKMKGDYYRYLAEVATGDDKKRIIDSARSAYQEAMDISKKEMPPTNPIRLGLALNFSVFHYEIANSPEEAISLAKTTFDEAMADLHTLSEDSYKDSTLIMQLLRDNLTLWTGSGSLRRGSTCVLA
modifications: phosphoserine at Ser195 of the STARD1 peptide
notes: 14-3-3σ, human, without the C-terminal tail (14-3-3σΔC core); linker; steroidogenic acute regulatory protein STARD1 (StAR), human, stretch around Ser195; also called protein with fused Ser195 peptide; not shown: His, N-terminal, cleaved
Turning to B4, the binding result in data set [4] is “binds”.
